Measurements taken from patent publication US11759508B2, “Antigenic peptides for treatment of B-cell malignancy” (ENTEROME S.A., priority 2019, dated 2023).
Entries after “also recorded” stand apart in the source; their conditions may differ. One block for each substance: values may come before it.

Tests used:
HLA-A*0201 = biological target: T1, HLA-A*0201 (Homo sapiens, UniProt P04439, D140Y/D185E/D98H/E176V/E277Q/G131W/G231S/I119V/I121R/I166T/I218V/L300P/L318F/N151K/N90K/P208A/P217A/Q86G/Q94H/R138H/R169H/T345S); assay: Affinity of the peptide to T2 cell line (HLA-A*0201 expression, FACS, relative to HIV pol 589-597); assay type: binding; conditions: for Concentration of peptide that induces 20% of HLA-A2 expression: T2 cells, peptide 100-0.1 μM, 16 h, 37° C., anti-HLA-A2 FACS; for mean relative fluorescence intensity of T2 cells: normalized to HIV peptide = 100
T1 construct: human tumoral cell T2 which expresses the HLA-A*0201 molecule; endogenous in cells; host or cells: T2 cells (human, TAP1/2 negative)
Excerpt: The experimental protocol is similar to the one that was validated for peptides presented by the HLA-A*0201 (Tourdot et al., A general strategy to enhance immunogenicity of low-affinity HLA-A2.1-associated peptides: implication in the identification of cryptic tumor epitopes. Eur J Immunol. 2000 December; 30(12):3411-21). Affinity measurement of the peptides is achieved with the human tumoral cell T2 which expresses the HLA-A*0201 molecule, but which is TAP ½ negative and incapable of presenting endogenous peptides.
(§1) T2 cells (5.104 cells per well) are incubated with decreasing concentrations of peptides from 100 μM to 0.1 μM (4 points: 100 μM, 10 μM, 1 μM, 0.1 μM) in serum-free medium (TexMacs) supplemented with […] of β2 Microglobulin at 37° C. for 16 hours. Cells are then washed two times and marked with the anti-HLA-A2 antibody coupled to PE (clone BB7.2, BD Pharmagen).
The analysis is achieved by FACS (Macsquant analyzer 10-Miltenyi).
For each peptide concentration, the geometric mean of the labelling associated with the peptide of interest is subtracted from background noise and reported as a percentage of the geometric mean of the […] labelling obtained for the reference peptide HIV pol 589-597 at a concentration of 100 μM. […] A2. Solubilisation of Peptides
as §1, with “32” for “β2”
For each peptide concentration, the geometric mean of the labelling associated with the peptide of interest is subtracted from background noise and reported as a percentage of the geometric mean of the […] labelling obtained for the reference peptide HIV pol 589-597 at a concentration of 100 μM.

[1] = tested on: HLA-A2 HHD-DR1 humanized mice; assay: ELISPOT-IFNγ on splenocytes of vaccinated HLA-A2 HHD-DR1 transgenic mice; assay type: in vivo, mouse; conditions: for cross-reactivity: T cell reaction after challenge with the human corresponding peptide: HHD-DR1 mice vaccinated with the bacterial peptide; for immunogenicity (T cell response in ELISPOT-IFNγ after vaccination): HHD-DR1 mice, prime d0 and boost d14, splenocytes d21
Excerpt: (§2) Briefly, HLA-A2 HHD-DR1 humanized mice (C57BL/6JB2mtm1UncIAb-/-Tg(HLA-DRA, HLA-DRB1*0101)#GjhTg(HLA-A/H2-D/B2M)1Bpe) or HHD-DR3 humanized mice (C57BL/6JB2mtm1UncIAb-/-Tg(HLA-DRA,HLA-DRB1*0301)#GjhTg(HLA-A/H2-D/B2M)1Bpe) were assigned randomly (based on mouse sex and age) to experimental groups, wherein each group was immunized with a specific vaccination peptide (vacc-pAg) combined to a common helper peptide (h-pAg UCP2; sequence: […]; SEQ ID NO: 475; for HHD DR1 mice or h-pAg DR3; sequence […]; SEQ ID n° 473; for HHD DR3 mice) (as outlined in Table 4 below).
(§3) The peptides were provided as follows: • vacc-pAg: CD22-B1, CD19-B1, CD19-B2, CD37-B1, TNFRSF13C-B1 and MS4A1-B4 all produced and provided at a 4 mg/ml (4 mM) concentration; • h-pAg: DR3 or UCP2 re-suspended in pure distilled water at a 10 mg/mL concentration
(§4) The peptide formulation to be injected (emulsion) was prepared freshly on each day of injection and for each group. A mix for 10 animals was prepared using 2 mL luer lock syringes (460670 IV, B BRAUN) and luer connectors (Cole-Parmer, 45502-22): 500 μL of peptide mixture in syringe 1 was emulsified with 500 μL of IFA contained in syringe 2, at high speed as fast as possible until forming a thick (white foam) emulsion. Each emulsion was prepared in excess to compensate for the dead volumes at injection.
(§5) The animals were immunized on day 0 (do) with a prime injection, and on d14 with a boost injection. Each mouse was injected s.c. at tail base with 100 μL of an oil-based emulsion that contained: • 60nMole of vacc-pAg; 105nMole of UCP2 helper peptide (for HHD-DR1 mice) or 65nMole of DR3 helper peptide (for HHD-DR3 mice) • 10 μL of PBS to reach a total volume of 50 μL (per mouse); • Incomplete Freund's Adjuvant (IFA) added at 1:1 (v:v) ratio (50 μL per mouse). A.2 Analysis
(§6) Seven days after the boost injection (i.e. on d21), the animals were euthanized and the spleen was harvested. Splenocytes were prepared by mechanical disruption of the organ followed by 70 μm-filtering and Ficoll density gradient purification.
(§7) The cell suspensions were further used in an ELISPOT-IFNγ assay (Table 5). The cells were cultured in 200 μL of complete T cell medium. Experimental conditions (duplicates) were as follow: 2×10^5 total cells per well when cultured in presence of various pAg (10 μM) or medium-only; and 2×10^4 total cells when cultured in presence of CD3/CD28-loaded bead particles (T cell Activation/Expansion kit, 130-093-627, Miltenyi) (bead-to-cell ratio of 1:1). The cultures were assessed for their capacity to secrete IFNγ (Diaclone Kit Murine IFNγ ELISpot, 862.031-005PC), following the manufacturer's instructions (˜16-18 h incubation time before performing the assay). The peptides used for restimulation are described in Table 5.
(§8) Spots were counted on a CTL ELISpot reader. Data plotting and statistical analysis were performed with the Prism-5 software (GraphPad Software Inc.).
(§9) The data were provided as a number of spots per 1·10^6 total T cells. The individual average values (obtained from the triplicates) were next used to plot the group average values. Statistical analysis for comparison (to the medium condition) were performed using unpaired non-parametric test (Mann Whitney) (**: p<0.01; *: p<0.05).

[2] = tested on: T2 cells loaded with bacterial peptide or human counterpart peptide; assay: Cytotoxic assay of peptide-specific CD8+ T cells against peptide-loaded T2 cells (flow cytometry); assay type: cell-based; conditions: for killing of T2 cells loaded with the bacteria peptide by peptide-specific human T cell clones: clones expanded in vitro, FIG. 18; for killing of T2 cells loaded with the human TNFR13C (BAFF-R) or MS4A1 (CD20) peptide by peptide-specific human T cell clones: when cross-reactivity is observed with the staining (FIG. 17)
Excerpt: CD8+ T cells expanded per above were used to perform cytotoxic assays in presence of different ratios of target and effector cells to assess their cytotoxic capacity, using flow cytometry readout. Target cells were T2 cell lines loaded with bacterial peptide or human counterpart peptide. Negative control was T2 cells unloaded and T2 cells loaded with irrelevant peptide. […] More importantly, CD22-B1, CD37B1, TNFRSF13C-B1 and MS4A1-B4-specific human T cells clones expanded in vitro were able to kill T2 cells loaded with the human TNFR13C (BAFF-R) or MS4A1 (CD20) peptide when cross-reactivity is observed with the staining (FIG. 17).

[3] = tested on: CD8 T cells from PBMCs of HLA-A*02 healthy donors; assay: Detection of antigenic peptide-specific CD8 T cells with pMHC multimers after in vitro amplification; assay type: cell-based, human; conditions: one HLA-A2 healthy donor, after cell amplification (FIG. 17)
Excerpt: In vitro amplification method and specific pMHC multimers have been used for identification of CD22-B1, CD37-B1, TNFRSF13C-B1 and MS4A1-B4 specific T cells. pMHC multimers were generated for all the bacteria peptides and their respective human counterpart. PBMCs from several HLA-A*02 healthy donors (up to 19 donors) were collected, enriched after CD137 and CD8 selection and subjected to multiple rounds of in vitro amplification with EO2463 peptides loaded T2 cells to increase the number of specific T cell clones. Detection of OMP peptide specific CD8 T cells using cytometry analysis with the fluorescent multimer was performed on enriched CD8 T cell populations

[4] = tested on: HLA-A2 HHD-DR3 humanized mice; assay: ELISPOT-IFNγ on splenocytes of vaccinated HLA-A2 HHD-DR3 transgenic mice; assay type: in vivo, mouse; conditions: for immunogenicity (ELISPOT-IFNγ), FIGS. 11-13: HHD DR3 mice (printed as HHD DR1); for cross-reactivity of the T cells for the corresponding human peptides: summary statement for HHD DR3 and HHD DR1 mice
Excerpt: as §2, §3, §4, §5, §6, §7, §8, §9

Substance: AMNSLSLYI [MS4A1-B4]
Concentration of peptide that induces 20% of HLA-A2 expression (HLA-A*0201): 12.3 µM
cross-reactivity: T cell reaction after challenge with the human corresponding peptide [1]: react strongly
immunogenicity (T cell response in ELISPOT-IFNγ after vaccination) [1]: significant T cell responses; also recorded: strongly immunogenic
killing of T2 cells loaded with the bacteria peptide by peptide-specific human T cell clones [2]: capacity to kill
killing of T2 cells loaded with the human TNFR13C (BAFF-R) or MS4A1 (CD20) peptide by peptide-specific human T cell clones [2]: able to kill
peptide-specific CD8 T cells detected with fluorescent multimer [3]: 19.7%
immunogenicity (ELISPOT-IFNγ), FIGS. 11-13 [4]: confirmed
cross-reactivity of the T cells for the corresponding human peptides [4]: shown

Concentration of peptide that induces 20% of HLA-A2 expression (HLA-A*0201): 13.20 µM
Substance: FMPGLLFGA [TNFRSF13C-B33]

Concentration of peptide that induces 20% of HLA-A2 expression (HLA-A*0201): 7.35 µM
Substance: GLAFVPLQI (listed as Homo sapiens) [CD37-H1, reference compound]

Concentration of peptide that induces 20% of HLA-A2 expression (HLA-A*0201): 2.30 µM
Substance: GMAFVPLLL [CD37-B11]

Concentration of peptide that induces 20% of HLA-A2 expression (HLA-A*0201): 0.70 µM
Substance: ILIPAGIYL [MS4A1-B3]

Concentration of peptide that induces 20% of HLA-A2 expression (HLA-A*0201): 1.60 µM
Substance: ILPGLLFGL [TNFRSF13C-B31]

Concentration of peptide that induces 20% of HLA-A2 expression (HLA-A*0201): >100 µM
Substance: IMNSLSLFA (listed as Homo sapiens) [MS4A1-H4, reference compound]

Concentration of peptide that induces 20% of HLA-A2 expression (HLA-A*0201): 11.76 µM
Substance: LLFGAPALL (listed as Homo sapiens) [TNFRSF13C-H1, reference compound]

Substance: LLVGILHLV [CD19-B1]
Concentration of peptide that induces 20% of HLA-A2 expression (HLA-A*0201): 3.7 µM
cross-reactivity: T cell reaction after challenge with the human corresponding peptide [1]: react strongly
immunogenicity (T cell response in ELISPOT-IFNγ after vaccination) [1]: significant T cell responses; also recorded: strongly immunogenic
cross-reactivity of the T cells for the corresponding human peptides [4]: shown

Substance: LMFGAPALV [TNFRSF13C-B1]
Concentration of peptide that induces 20% of HLA-A2 expression (HLA-A*0201): 4.35 µM
cross-reactivity: T cell reaction after challenge with the human corresponding peptide [1]: react strongly
immunogenicity (T cell response in ELISPOT-IFNγ after vaccination) [1]: significant T cell responses; also recorded: strongly immunogenic
killing of T2 cells loaded with the bacteria peptide by peptide-specific human T cell clones [2]: capacity to kill
killing of T2 cells loaded with the human TNFR13C (BAFF-R) or MS4A1 (CD20) peptide by peptide-specific human T cell clones [2]: able to kill
peptide-specific CD8 T cells detected with fluorescent multimer [3]: 13%
immunogenicity (ELISPOT-IFNγ), FIGS. 11-13 [4]: confirmed
cross-reactivity of the T cells for the corresponding human peptides [4]: shown

Concentration of peptide that induces 20% of HLA-A2 expression (HLA-A*0201): 4.83 µM
Substance: LMIPAGIYA (listed as Homo sapiens) [MS4A1-H3, reference compound]

Concentration of peptide that induces 20% of HLA-A2 expression (HLA-A*0201): 49.63 µM
Substance: LQMGGFYLL [CD19-B7]

Concentration of peptide that induces 20% of HLA-A2 expression (HLA-A*0201): 2.45 µM
Substance: MS4A1-B41 (ILNSLSLLL)

mean relative fluorescence intensity of T2 cells (HLA-A*0201; peptide 0.1 (μM)): 0
mean relative fluorescence intensity of T2 cells (HLA-A*0201; peptide 1 (μM)): 1.8
mean relative fluorescence intensity of T2 cells (HLA-A*0201; peptide 10 (μM)): 6.5
Substance: SLFLGILSV (listed as Homo sapiens) [MS4A1-H5, reference compound]

Concentration of peptide that induces 20% of HLA-A2 expression (HLA-A*0201): 5.97 µM
Substance: SLVGILHII [CD19-B11]

Concentration of peptide that induces 20% of HLA-A2 expression (HLA-A*0201): 4.98 µM
Substance: TLAYLIFCL (listed as Homo sapiens) [CD19-H6, reference compound]

Substance: TLLFLTPML [CD19-B2]
Concentration of peptide that induces 20% of HLA-A2 expression (HLA-A*0201): 0.38 µM
cross-reactivity: T cell reaction after challenge with the human corresponding peptide [1]: react strongly
immunogenicity (T cell response in ELISPOT-IFNγ after vaccination) [1]: significant T cell responses; also recorded: strongly immunogenic
cross-reactivity of the T cells for the corresponding human peptides [4]: shown

Concentration of peptide that induces 20% of HLA-A2 expression (HLA-A*0201): 1.97 µM
Substance: WVFEHPETL (listed as Homo sapiens) [CD22-H1, reference compound]

Concentration of peptide that induces 20% of HLA-A2 expression (HLA-A*0201): 31.20 µM
Substance: YILGGLLMV [MS4A1-B12]

Concentration of peptide that induces 20% of HLA-A2 expression (HLA-A*0201): 3.76 µM
Substance: YLAYLIFEL [CD19-B6]

Concentration of peptide that induces 20% of HLA-A2 expression (HLA-A*0201): 6.77 µM
Substance: YLFLGILSL [MS4A1-B5]

Concentration of peptide that induces 20% of HLA-A2 expression (HLA-A*0201): 0.2 µM
Substance: YVFEHPELL [CD22-B11]
